From US20030108957A1
“And” between values parts separate entries of the source, which are not always exact repeats. Equal entries are not always repeated.

T1: GrpE, P09372
T1 chain: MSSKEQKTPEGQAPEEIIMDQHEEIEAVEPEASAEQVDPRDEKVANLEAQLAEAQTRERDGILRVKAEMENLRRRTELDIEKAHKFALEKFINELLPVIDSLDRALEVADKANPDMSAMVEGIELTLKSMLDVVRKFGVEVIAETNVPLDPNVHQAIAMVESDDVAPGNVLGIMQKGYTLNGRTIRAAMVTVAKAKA

T2: GroES, P0A6F9
T2 chain: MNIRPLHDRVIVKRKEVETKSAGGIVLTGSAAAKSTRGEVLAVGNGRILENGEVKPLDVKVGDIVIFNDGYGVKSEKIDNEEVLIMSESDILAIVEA

B1: pyrrhocoricin (unlabeled, all L-amino acids, without sugar) (peptide)
peptide: VDKGSYLPRPTPPRPIYNRN
modifications: not checked
B2: fluorescein-K-pyrrhocoricin (peptide)
peptide: KVDKGSYLPRPTPPRPIYNRN
modifications: not checked

Assays:
[1] = target: E. coli DnaK (E. coli), A1A766; assay: cell-based or functional assay
GroEL (E. coli), P0A6F5 [2] = target: GroEL (E. coli), P0A6F5
[3] = target: E. coli DnaK (E. coli), A1A766
[4] = target: E. coli DnaK aa588-615 (E. coli)
[5] = target: E. coli DnaK aa583-615 (hinge region between C-terminal helices D and E) (E. coli)
[6] = target: E. coli DnaK (E. coli), A1A766; remark: listed apart in the source
[7] = target: guanyl-nucleotide binding protein Ras (21 kDa); assay: fluorescence polarization, 1 nM labeled peptide, 4 µM Ras; background without protein 46±7
[8] = target: Hsp60 (the human equivalent of GroEL) (human), P10809; assay: fluorescence polarization, 1 nM labeled peptide, 4 µM protein; blank about 62
Hsp60 (the human equivalent of GroEL) (human), P10809, sequence (P10809 27-573 limits assumed): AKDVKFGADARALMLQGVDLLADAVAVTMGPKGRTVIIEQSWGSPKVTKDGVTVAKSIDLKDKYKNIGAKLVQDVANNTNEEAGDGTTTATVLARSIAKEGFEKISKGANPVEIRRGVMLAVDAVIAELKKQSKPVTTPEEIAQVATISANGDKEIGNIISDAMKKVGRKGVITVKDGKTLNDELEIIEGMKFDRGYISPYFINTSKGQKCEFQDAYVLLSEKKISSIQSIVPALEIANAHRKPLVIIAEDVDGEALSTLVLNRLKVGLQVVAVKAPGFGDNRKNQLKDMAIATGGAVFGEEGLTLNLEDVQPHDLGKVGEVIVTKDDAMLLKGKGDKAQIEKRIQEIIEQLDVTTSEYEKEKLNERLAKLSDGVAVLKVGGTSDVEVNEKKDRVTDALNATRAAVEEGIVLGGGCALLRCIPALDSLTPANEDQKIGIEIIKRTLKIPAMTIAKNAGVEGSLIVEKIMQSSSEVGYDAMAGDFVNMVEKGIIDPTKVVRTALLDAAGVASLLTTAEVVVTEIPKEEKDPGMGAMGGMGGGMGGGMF

[9] = target: Hsp60 (the human equivalent of GroEL) (human), P10809; assay: fluorescence polarization, 1 nM labeled peptide, 2 µM protein; blank about 62
GrpE, P09372 = target: T1, GrpE, P09372
GroEL (E. coli), P0A6F5 [10] = target: GroEL (E. coli), P0A6F5; remark: listed apart in the source
[11] = target: E. coli DnaK (E. coli), A1A766; remark: listed apart in the source
GroES, P0A6F9 = target: T2, GroES, P0A6F9

Binder	ATPase activity of recombinant DnaK (EnzChek assay, UV absorbance at 360 nm), 50 molar equivalents of peptide (fraction of the original value) [1]	Millipolarization after preincubation (millipolarization) (GroEL (E. coli), P0A6F5 [2])	Millipolarization after preincubation (millipolarization) [3]	Kd [4] [µM]	Kd [5] [µM]	Kd [6] [µM]	millipolarization over the background [6] [%]	millipolarization units (millipolarization units) [7]	minipolarization value (millipolarization) [8]	Millipolarization (no competing peptide) (millipolarization) (GroEL (E. coli), P0A6F5 [2])	Millipolarization (no competing peptide) (millipolarization) [3]	minipolarization value (millipolarization) [9]	minipolarization value (millipolarization) (GrpE, P09372)	minipolarization value (millipolarization) (GroEL (E. coli), P0A6F5 [10])	minipolarization value (millipolarization) [11]	minipolarization value (millipolarization) (GroES, P0A6F9)
B1	< 0.5	62	110 and 84	–	–	–	–	–	–	–	–	–	–	–	–	–
B2	–	–	–	93	50.8	1.1	50	52	90	70	126	62	< 62	> 100 and 85	100 and 95	< 62
